According to paper PMC4332252 (The Journal of Cell Biology, 2015):

How the values were obtained:
[1] = target: T1, Plk4-EGFP (Drosophila melanogaster, UniProt O97143 1-769); assay: co-IP
T1 sequence (looked up): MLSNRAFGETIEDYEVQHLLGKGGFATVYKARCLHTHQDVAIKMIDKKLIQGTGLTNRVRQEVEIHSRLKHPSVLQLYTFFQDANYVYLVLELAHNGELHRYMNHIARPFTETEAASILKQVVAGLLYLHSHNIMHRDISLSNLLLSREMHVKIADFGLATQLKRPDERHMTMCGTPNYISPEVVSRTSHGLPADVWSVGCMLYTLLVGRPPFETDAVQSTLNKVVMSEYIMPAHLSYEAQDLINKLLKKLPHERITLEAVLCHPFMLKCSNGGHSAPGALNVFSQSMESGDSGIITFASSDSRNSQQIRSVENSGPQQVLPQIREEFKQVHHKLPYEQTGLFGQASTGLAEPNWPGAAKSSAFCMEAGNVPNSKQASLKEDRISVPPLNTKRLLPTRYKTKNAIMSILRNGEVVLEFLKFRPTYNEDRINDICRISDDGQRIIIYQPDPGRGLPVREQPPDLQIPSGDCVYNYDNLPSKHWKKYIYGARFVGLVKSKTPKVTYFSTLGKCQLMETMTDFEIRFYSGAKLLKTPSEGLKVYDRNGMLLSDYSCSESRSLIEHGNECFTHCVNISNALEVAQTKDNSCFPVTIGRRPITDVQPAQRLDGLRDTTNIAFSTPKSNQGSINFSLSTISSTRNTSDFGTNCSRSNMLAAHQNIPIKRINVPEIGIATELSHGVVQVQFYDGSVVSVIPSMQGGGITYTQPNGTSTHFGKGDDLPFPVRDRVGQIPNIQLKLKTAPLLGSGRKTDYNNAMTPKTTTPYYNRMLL

[2] = target: the molecule itself; assay: SEC-MALS

Binder | fold increase of bound Plk4-myc with Asl coexpressed, against without Asl [1] | stoichiometry N [2]
Plk4-myc (natural protein, Drosophila melanogaster, UniProt O97143 1-769, looked up) MLSNRAFGETIEDYEVQHLLGKGGFATVYKARCLHTHQDVAIKMIDKKLIQGTGLTNRVRQEVEIHSRLKHPSVLQLYTFFQDANYVYLVLELAHNGELHRYMNHIARPFTETEAASILKQVVAGLLYLHSHNIMHRDISLSNLLLSREMHVKIADFGLATQLKRPDERHMTMCGTPNYISPEVVSRTSHGLPADVWSVGCMLYTLLVGRPPFETDAVQSTLNKVVMSEYIMPAHLSYEAQDLINKLLKKLPHERITLEAVLCHPFMLKCSNGGHSAPGALNVFSQSMESGDSGIITFASSDSRNSQQIRSVENSGPQQVLPQIREEFKQVHHKLPYEQTGLFGQASTGLAEPNWPGAAKSSAFCMEAGNVPNSKQASLKEDRISVPPLNTKRLLPTRYKTKNAIMSILRNGEVVLEFLKFRPTYNEDRINDICRISDDGQRIIIYQPDPGRGLPVREQPPDLQIPSGDCVYNYDNLPSKHWKKYIYGARFVGLVKSKTPKVTYFSTLGKCQLMETMTDFEIRFYSGAKLLKTPSEGLKVYDRNGMLLSDYSCSESRSLIEHGNECFTHCVNISNALEVAQTKDNSCFPVTIGRRPITDVQPAQRLDGLRDTTNIAFSTPKSNQGSINFSLSTISSTRNTSDFGTNCSRSNMLAAHQNIPIKRINVPEIGIATELSHGVVQVQFYDGSVVSVIPSMQGGGITYTQPNGTSTHFGKGDDLPFPVRDRVGQIPNIQLKLKTAPLLGSGRKTDYNNAMTPKTTTPYYNRMLL | ~4 fold | 
His6-Asl-A (aa 1-357) (domain or fragment, Drosophila melanogaster, UniProt Q9VNE4 1-357, looked up) MNTPGISLFQGADALNINSTLDRQEEEEALQDQKRREEELGRIMVNAFDDLLDEENTIDSTTNYQSELEQPPVLPNYPSHPHHKPLQDDAQRANEIEMHRLQILLESKNNELQNVNQVANAAHKKLDDLQKHLSIMQAELDRAIREKQNTHELLVETKETCSNKDSDLDKLRSEKKQLEEDNTRLVGQLEAAKTLLTDVQSKYDMVQASKQKWEERNADLRLKQMEEAHRAQSDLLQQQLCQMKDQLDRKQNELDQINSRYNALQSGHETMLVDKAAKINELSQALDEAQMRCNQLSARPDLQAENRRQQQCIVDLKARIAYLEQTVASLHERLNETTTELDLIDSVIQQHQADESP |  | 2
His6-Asl-B (aa 358-625) (domain or fragment, Drosophila melanogaster, UniProt Q9VNE4 358-625, looked up) TSRLSQMGGSRLVGSTPLNPLDRVGHIKQELYRALGNLKNKREEVRRLEKLLEERNQELRVLRDQENQSLVQLETLNEGKMRLENKVKAMQQELEEQKHRSQQESDVHSQLNSIVAERDALREKRQQIEEDLEQLKQQNESLQRNYDQLSQENRQLRTRETADNLRLELERHKILLRDSQSEVERLKKLYSDIATDKESLGYELRKLRESDTLKELQDQRQNLATVQRNLQLAEMKSEELKKLLETEKLSHERDLQALRQRSEREKRE |  | 2
His6-Asl-C (aa 626-994) (domain or fragment, Drosophila melanogaster, UniProt Q9VNE4 626-994, looked up) EAVAVAKESSENCSKCIESIAEITKAEIQLLKLQNVNSMQAKELKELEHALEQSKNLQAEMQEKIELSNKQDELISDLKERAKQFEAYIRQQEEHKQQNKCTPSPKSNSVSPSDPSPKELTQNRIRLIEQRVRDEMAKLFAAELKRFTNRLQKSEERSQCLQREYQTVCAELQQRQTEVDLLKQTILAERENIDEILAGREEKQKEMLQKCRQELQAKNQRIAELLREVEEQHASIDSERQSMKAVMAQWEKQRQSVDQVEHHWRQQLESLRSTHEEAMRSAQQRYQSAKRTAHNYKLYAEDKEAHMKREYERIKHEYELSLAKIEATMNQHLERRSREKHRDKENVPSNSSSDPITNSNRKPKGNGHS |  | 3
